Test results published in the supplement of paper PMC9876800.

System: peptide library, one residue held at a place counted from the S/T acceptor
Experiment: relative phosphorylation of the sub-library (ratio to the mean residue at this position); higher = residue favoured
In short: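 Human or orthologue kinase constructs, purified and recombinant, were incubated under kinase-specific conditions in 384-well plates with biotinylated degenerate peptide sub-libraries. Each sub-library fixed one residue at one position around a central Ser/Thr. Incubations lasted 90 min with peptides at 50 μM and 50 μM ATP spiked with γ-32P-ATP, after which spots on streptavidin membranes were phosphorimaged and quantified by densitometry. Relative sub-library phosphorylation is a ratio to the mean residue at that position.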

RPS6KB2, construct: Full length, human, sequence (Q9UBS0 whole entry, looked up): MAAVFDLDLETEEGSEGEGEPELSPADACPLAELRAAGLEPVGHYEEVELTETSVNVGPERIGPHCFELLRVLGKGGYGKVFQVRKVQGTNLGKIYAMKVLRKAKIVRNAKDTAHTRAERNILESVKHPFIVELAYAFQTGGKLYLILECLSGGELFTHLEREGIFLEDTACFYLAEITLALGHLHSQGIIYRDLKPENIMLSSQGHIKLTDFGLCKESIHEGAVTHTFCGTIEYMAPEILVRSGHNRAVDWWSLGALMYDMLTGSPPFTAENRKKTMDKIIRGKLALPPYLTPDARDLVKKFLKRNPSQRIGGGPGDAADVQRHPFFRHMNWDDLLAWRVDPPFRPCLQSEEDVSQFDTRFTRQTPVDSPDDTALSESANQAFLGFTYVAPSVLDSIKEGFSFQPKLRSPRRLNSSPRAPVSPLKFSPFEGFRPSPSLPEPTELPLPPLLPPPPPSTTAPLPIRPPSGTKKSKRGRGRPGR
UHMK1, construct: Full length, rat, sequence (Q63285 whole entry, looked up): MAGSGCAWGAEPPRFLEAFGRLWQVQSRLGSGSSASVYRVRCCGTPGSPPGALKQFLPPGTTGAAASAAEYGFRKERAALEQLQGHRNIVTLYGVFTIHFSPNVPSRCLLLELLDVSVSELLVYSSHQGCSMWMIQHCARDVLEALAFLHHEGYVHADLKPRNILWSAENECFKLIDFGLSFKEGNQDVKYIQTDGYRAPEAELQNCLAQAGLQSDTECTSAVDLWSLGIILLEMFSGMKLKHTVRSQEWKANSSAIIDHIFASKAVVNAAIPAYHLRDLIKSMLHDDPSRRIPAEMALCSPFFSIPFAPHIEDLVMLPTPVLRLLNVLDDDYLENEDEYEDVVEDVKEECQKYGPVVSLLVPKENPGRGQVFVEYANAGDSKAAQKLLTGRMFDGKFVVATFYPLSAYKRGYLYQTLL
PLK2, construct: aa57-360, human, sequence (Q9NYY3 57-360, looked up): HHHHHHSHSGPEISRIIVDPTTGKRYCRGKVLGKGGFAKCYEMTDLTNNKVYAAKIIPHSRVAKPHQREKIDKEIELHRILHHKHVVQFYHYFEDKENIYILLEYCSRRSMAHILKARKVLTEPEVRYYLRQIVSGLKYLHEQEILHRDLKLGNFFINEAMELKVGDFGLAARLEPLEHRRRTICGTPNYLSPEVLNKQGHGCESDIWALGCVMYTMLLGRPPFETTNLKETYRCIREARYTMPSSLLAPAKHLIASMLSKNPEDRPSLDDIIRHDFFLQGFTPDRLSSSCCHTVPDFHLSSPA

UHMK1, construct: Full length, rat (from UniProt Q63285)
relative phosphorylation
Conditions	at +1	at +2	at +3	at +4	at -1	at -2	at -3	at -4	at -5
A fixed	0.707	1.1	1.58	1.14	1.16	1.12	0.872	0.961	0.981
D fixed	0.246	0.442	0.33	0.594	1.67	3.17	3.13	1.43	1.11
E fixed	0.266	0.515	0.397	1.54	0.818	1.86	2.01	1.14	1.02
F fixed	0.343	1.09	1.12	0.824	0.666	0.678	0.626	0.742	0.715
G fixed	0.86	1.08	0.906	0.915	1.54	1.22	1.11	1.02	0.994
H fixed	0.349	0.936	0.99	0.78	0.872	0.714	0.822	0.872	1.45
I fixed	0.665	1.18	0.77	1.36	0.636	0.663	0.704	0.917	0.931
K fixed	0.437	1.07	0.477	0.761	0.939	0.636	0.625	1.15	1.64
L fixed	0.363	1.02	0.872	0.86	0.808	0.677	0.672	0.95	1.22
M fixed	0.362	0.76	0.601	0.847	0.73	0.599	0.647	0.703	0.748
N fixed	0.299	0.664	0.402	0.588	1.36	0.945	1.09	1.28	1.18
P fixed	10.2	2.02	4.75	1.07	1.9	1.37	1.17	1.16	0.952
Q fixed	0.321	0.729	0.447	1.46	0.957	0.693	0.801	0.769	0.669
R fixed	0.388	0.958	0.829	0.681	0.81	0.592	0.674	0.677	0.749
V fixed	0.475	1.37	0.887	1.89	0.763	0.786	0.69	0.734	0.758
W fixed	0.362	0.831	0.732	0.792	0.681	0.631	0.665	1.79	1.13
Y fixed	0.337	1.25	0.91	0.891	0.687	0.642	0.685	0.712	0.749
pThr fixed	0.306	0.654	0.572	0.747	1.2	5.01	2.73	1.9	2.82
pTyr fixed	0.357	0.536	0.505	1.06	0.702	2.41	2.11	1.36	0.883

PLK2, construct: aa57-360, human (from UniProt Q9NYY3)
relative phosphorylation
Conditions	at +1	at +2	at +3	at +4	at -1	at -2	at -3	at -4	at -5
A fixed	0.569	0.927	0.69	0.793	0.879	0.734	0.559	0.825	0.975
D fixed	0.52	2.18	2.27	1.98	2.51	3.13	1.77	1.74	1.46
E fixed	0.87	2.23	2.59	2.2	1.61	2.35	7.3	2.19	1.53
F fixed	3.75	0.919	0.861	0.916	0.658	0.508	0.751	1.06	1.37
G fixed	0.529	0.54	0.81	0.842	0.587	0.655	0.583	0.9	1.25
H fixed	0.628	0.999	0.914	0.988	1.16	0.8	0.625	0.888	1.11
I fixed	1.3	0.971	0.835	0.974	0.697	0.558	0.318	0.888	0.806
K fixed	0.452	0.227	0.358	0.442	0.634	0.3	0.292	0.638	0.722
L fixed	1.02	0.707	0.874	0.982	0.701	1.23	0.608	1.11	0.844
M fixed	1.78	1.01	0.85	0.869	0.874	1.24	0.763	0.866	0.842
N fixed	0.567	0.99	1.05	0.866	1.24	1.88	0.687	1	0.955
P fixed	0.159	0.532	0.609	1.07	1.46	0.736	0.482	0.928	0.955
Q fixed	1.2	0.752	0.987	0.877	0.833	0.883	0.717	0.846	0.692
R fixed	0.691	0.438	0.396	0.441	0.79	0.465	0.333	0.609	0.694
V fixed	0.994	0.841	0.765	0.554	0.899	0.391	0.269	0.775	0.757
W fixed	0.683	1.31	1.08	1.24	0.469	0.458	0.48	0.907	0.977
Y fixed	1.28	1.44	1.05	0.968	0.997	0.676	0.459	0.845	1.06
pThr fixed	1.33	2.29	2.39	3.26	1.07	1.08	1.05	1.68	1.04
pTyr fixed	1.4	11	2.89	3.61	4.55	0.912	1.2	1.6	1.63

RPS6KB2, construct: Full length, human (from UniProt Q9UBS0)
relative phosphorylation
Conditions	at +1	at +2	at +3	at +4	at -1	at -2	at -3	at -4	at -5
A fixed	0.79	1.22	1.17	1	0.797	0.703	0.597	0.963	0.777
D fixed	0.72	0.659	0.823	1.07	1.08	0.468	0.415	0.699	0.634
E fixed	1.07	0.594	0.891	0.933	0.764	0.467	0.386	0.709	0.569
F fixed	1.32	0.706	0.912	0.863	0.822	0.626	0.459	0.705	0.611
G fixed	0.854	1.27	1.14	1.2	0.76	0.701	0.554	1.07	0.961
H fixed	0.971	1.58	1.18	1.17	1.01	1.11	0.903	1.05	1
I fixed	1.22	0.745	0.82	0.733	0.734	0.552	0.421	0.737	0.571
K fixed	0.989	1.09	1.08	1.19	1.63	2.59	2.04	1.97	2.19
L fixed	0.979	0.781	0.897	0.774	0.835	0.866	0.475	0.647	0.584
M fixed	1.11	0.961	0.869	0.849	0.903	0.702	0.453	0.77	0.566
N fixed	1.06	1.51	1.06	1.03	1.59	0.803	0.625	0.938	0.784
P fixed	0.614	0.914	1.05	1.25	0.931	0.548	0.55	0.937	0.834
Q fixed	1.13	1.02	1.17	1.1	1.03	0.882	0.731	1.08	0.945
R fixed	0.954	1.52	1.01	0.973	1.44	3.95	6.7	2.31	3.84
V fixed	1.09	0.88	0.849	0.747	0.855	0.58	0.425	0.794	0.607
W fixed	0.979	0.776	1.1	1.16	0.774	0.674	0.697	0.828	0.734
Y fixed	1.15	0.778	0.98	0.952	1.03	0.772	0.573	0.789	0.789
pThr fixed	1.17	0.868	0.923	1.34	0.624	0.484	0.446	0.703	0.596
pTyr fixed	1.39	0.96	1.2	1.32	1.8	0.552	0.473	0.767	0.779
